From patent US20070093415A1
No end group written: not given here. *: point of attachment. Biotin = O=C1N[C@H]2[C@H](CS[C@H]2CCCCC(=O)*)N1

B1: Biotin-… (peptide)
peptide: Biotin-AECDWGKGGRWRLWPGASGKTEACGP
modifications: also: flanking cysteines can form a disulfide bond
B2: Biotin-… (peptide)
peptide: Biotin-DWGKGGRWRLWPGASGKTEA

What was measured:
[1] = target: Aβ1-40 amyloid (amyloid form of the Aβ1-40 peptide); assay: ELISA on immobilized Aβ1-40 amyloid, streptavidin-alkaline phosphatase detection
[2] = target: Aβ1-40 amyloid (amyloid form of the Aβ1-40 peptide); assay: ELISA on immobilized Aβ1-40 amyloid, FIG. 5

Binder | Kd [1] [nM] | concentration below which no significant binding was seen [2] [µM]
B1 | 320 | 
B2 |  | > 5
